The record followed here is patent US20220396614A1 (DEUTSCHES KREBSFORSCHUNGSZENTRUM, published 2022).

In the test the target is Plasmodium falciparum circumsporozoite protein (PfCSP) on Pf NF54 salivary gland sporozoites (Plasmodium falciparum (NF54)). Nature of the test: cell-based or functional assay.

B1: monoclonal antibody 2541 (antibody, V domains shown)
VH: QVQLVESGGGVVQPGRSLRLSCAASGFTFSSYGMHWVRQTTGKGLEWVAIIWHDGSKKYYADSVKGRLTISRDNSKNTLYLQMNSLRVEDTALYYCARVGDYSDFKYGAFDIWGQGTMVTVSS
VL: DIQMTQSPSTLSASVGDRVTITCRASQSISSWLAWYQQKPGKAPNLLIYKASTLESGVPSRFSGSGSGTEFTLTISSLQPDDFATYYCQQYNSYWTFGQGTRVEIK
With B1, the “IC50, in vitro Pf-traversal inhibition assay” value is under 1 µg/mL.
